Test results published in PMC4709122 (Nature structural & molecular biology, 2015).

Experiments:
Assay in all cases: fluorescence polarisation
[1] = molecular target: UBC9–SUMO2^B non-covalent complex (human, UniProt P63279;P61956)
[2] = molecular target: SUMO2 (construct not stated for this experiment) (human, UniProt P61956 1-95)
[3] = molecular target: UBC9 (human SUMO E2, untagged) (human, UniProt P63279 1-158)
Sequence of UBC9 (human SUMO E2, untagged) (P63279 whole entry): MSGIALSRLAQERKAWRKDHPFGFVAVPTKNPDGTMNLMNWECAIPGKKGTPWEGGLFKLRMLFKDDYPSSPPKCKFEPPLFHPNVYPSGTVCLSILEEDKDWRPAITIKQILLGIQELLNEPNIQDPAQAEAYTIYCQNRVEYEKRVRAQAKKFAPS

Kd [1]: 2 µM
Kd [2]: 120 to 150 µM
Kd [3]: 10 to 16 µM
B1: Alexa488-labeled CysZNF451(2–56) (domain or fragment)
chain: CGDPGSEIIESVPPAGPEASESTTDENEDDIQFVSEGPLRPVLEYIDLVSSDDEEP
modifications: Alexa488-maleimide on the single engineered N-terminal cysteine
